The record followed here is PMC8988209, “AAV‐mediated delivery of an anti‐BACE1 VHH alleviates pathology in an Alzheimer's disease model” (EMBO Molecular Medicine, 2022).

By Kd is commonly meant the concentration at which binding is half-saturated. One may read the koff as the rate constant with which the complex falls apart. Low readings indicate slow dissociation, high ones fast dissociation. The term kon denotes the second-order rate constant of association. A higher kon goes with faster complex formation.

The target of experiment [1] is purified human BACE1 ectodomain (human) (UniProt P56817). In words: SPR; BIAcore; 2,500 RU purified BACE1 ectodomain amine-coupled to a CM5 chip; VHHs injected at 0–500 nM, 25°C; citrate buffer with 150 mM NaCl, 3.5 mM EDTA, 0.005% Tween-20 at pH 4.5. On the technique in general: SPR reads the build-up and loss of mass on a sensor chip optically.
The target in experiment [2] is human BACE1 (amino acids 1–460) fused to the constant region of human IgG1 (hBACE1:Fc), wild type (Homo sapiens, UniProt P56817). In words: cell-based or functional assay.
Experiment [3] has as its target T1, biotinylated mouse BACE1 (Mus musculus, UniProt P56818, biotin). Description: cell-based or functional assay.
For experiment [4], the target named is T1, biotinylated mouse BACE1. Description: BLI; OctetRED96; biotinylated human or mouse BACE1 immobilised at 1 μg/ml on streptavidin biosensors; serial dilutions of VHH-B9 (table: Conc. 100 nM); Kinetic Buffer, 25°C, 1,000 rpm; 1:1 fitting model. To be noted: both partners purified. Background: In BLI a coated tip is dipped into the sample, and binding shifts an interference pattern.

Experiment [5] concerns the target T2, biotinylated human BACE1 (Homo sapiens, UniProt P56817, biotin).
T2 construct: human BACE1, biotinylated and immobilised on streptavidin biosensors; Probably an ectodomain preparation; also called hBACE1; biotinylated BACE1
The experiment is described as above. The following applies: both partners purified.

Experiment [6] concerns the target T3, mouse BACE2 (Mus musculus, UniProt Q9JL18).
T3 construct: mouse BACE2; also called mBACE2
Described as above. To be noted: both partners purified.

In experiment [7] the target is purified human BACE1 ectodomain (human) (UniProt P56817). In words: SPR; BIAcore; 2,500 RU purified BACE1 ectodomain amine-coupled to a CM5 chip; VHHs injected at 0–500 nM, 30 μl/min, 25°C; HBS buffer (10 mM Hepes (pH 7.5), 150 mM NaCl, 3.5 mM EDTA, 0.005% Tween-20); table gives pH 7.0.
Experiment [8] addresses human BACE1 (amino acids 1–460) fused to the constant region of human IgG1 (hBACE1:Fc), wild type (human) (UniProt P56817).

T1 sequence (P56818 46-501): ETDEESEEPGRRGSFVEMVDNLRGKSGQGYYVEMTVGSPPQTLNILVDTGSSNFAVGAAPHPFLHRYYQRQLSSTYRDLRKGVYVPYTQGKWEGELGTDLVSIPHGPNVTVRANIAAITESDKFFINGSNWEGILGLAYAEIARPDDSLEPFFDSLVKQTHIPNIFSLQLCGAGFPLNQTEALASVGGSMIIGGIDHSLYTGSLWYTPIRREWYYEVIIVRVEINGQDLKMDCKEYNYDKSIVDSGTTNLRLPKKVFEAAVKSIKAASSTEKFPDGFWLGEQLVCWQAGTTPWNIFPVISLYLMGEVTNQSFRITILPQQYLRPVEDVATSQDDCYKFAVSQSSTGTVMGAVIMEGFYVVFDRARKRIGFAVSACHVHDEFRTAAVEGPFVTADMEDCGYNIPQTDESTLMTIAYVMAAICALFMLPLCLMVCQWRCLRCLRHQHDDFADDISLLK
purified human BACE1 ectodomain (human), sequence (P56817 22-457): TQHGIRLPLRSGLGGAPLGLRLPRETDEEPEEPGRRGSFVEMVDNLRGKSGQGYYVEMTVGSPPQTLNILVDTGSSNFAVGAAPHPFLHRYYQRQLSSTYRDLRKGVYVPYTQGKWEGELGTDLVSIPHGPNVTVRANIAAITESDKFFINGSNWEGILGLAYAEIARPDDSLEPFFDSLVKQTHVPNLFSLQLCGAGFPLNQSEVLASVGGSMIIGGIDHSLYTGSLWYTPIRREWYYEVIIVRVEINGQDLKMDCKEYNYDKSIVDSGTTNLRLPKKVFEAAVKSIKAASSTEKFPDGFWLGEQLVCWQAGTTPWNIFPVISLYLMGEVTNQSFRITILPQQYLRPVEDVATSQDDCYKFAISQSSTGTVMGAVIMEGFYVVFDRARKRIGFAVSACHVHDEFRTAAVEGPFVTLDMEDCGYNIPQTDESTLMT
T2 sequence (P56817 46-501): as the sequence (P56818 46-501) above, with S6P, I162V, I165L, T180S, A182V, V340I, A393L, H443Q counted along it
human BACE1 (amino acids 1–460) fused to the constant region of human IgG1 (hBACE1:Fc), wild type (human), sequence (P56817 22-460): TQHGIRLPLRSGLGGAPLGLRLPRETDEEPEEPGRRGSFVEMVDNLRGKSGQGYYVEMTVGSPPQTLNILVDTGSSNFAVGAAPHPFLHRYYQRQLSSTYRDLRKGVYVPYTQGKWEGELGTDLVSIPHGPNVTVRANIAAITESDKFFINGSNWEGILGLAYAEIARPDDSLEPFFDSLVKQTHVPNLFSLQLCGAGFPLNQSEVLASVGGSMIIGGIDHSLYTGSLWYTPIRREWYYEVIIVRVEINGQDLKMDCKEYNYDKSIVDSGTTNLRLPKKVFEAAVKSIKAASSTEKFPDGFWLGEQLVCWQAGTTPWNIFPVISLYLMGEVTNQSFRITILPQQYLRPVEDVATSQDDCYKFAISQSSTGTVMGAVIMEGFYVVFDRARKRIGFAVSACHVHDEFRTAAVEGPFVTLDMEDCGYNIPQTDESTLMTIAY
T3 sequence (Q9JL18 20-514): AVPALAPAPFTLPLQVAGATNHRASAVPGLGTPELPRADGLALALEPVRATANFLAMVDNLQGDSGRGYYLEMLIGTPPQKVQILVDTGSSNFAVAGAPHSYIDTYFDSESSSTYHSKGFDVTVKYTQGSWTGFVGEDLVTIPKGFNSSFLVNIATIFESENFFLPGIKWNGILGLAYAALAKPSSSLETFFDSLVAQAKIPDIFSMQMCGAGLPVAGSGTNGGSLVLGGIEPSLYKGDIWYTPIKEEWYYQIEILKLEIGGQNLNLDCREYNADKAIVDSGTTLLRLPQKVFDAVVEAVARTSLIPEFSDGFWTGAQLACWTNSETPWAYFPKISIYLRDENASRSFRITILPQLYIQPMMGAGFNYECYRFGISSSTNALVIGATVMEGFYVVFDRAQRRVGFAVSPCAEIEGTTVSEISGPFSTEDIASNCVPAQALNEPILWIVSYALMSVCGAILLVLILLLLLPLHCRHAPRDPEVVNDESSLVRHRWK
human BACE1 (amino acids 1–460) fused to the constant region of human IgG1 (hBACE1:Fc), wild type, sequence (P56817 22-460): as the sequence (P56817 22-460) above

B1: VHH‐B9 (VHH)
VHH: DVQLQESGGGSVQAGGSLRLSCAASEYTYGYCSMGWYRQAPGKERELVSTITSDGSTSYVDSVKGRFTISQDNAKNTVYLQMNSLKPEDTAKYYCYTKTCANKLGAKFISWGQGTQVTVSS
notes: Recombinant form used in SPR, BLI, dot blot (detected by anti-His) and the cleavage assays; source: E. coli WK6 (pHEN6), periplasmic extract, purified (Ni-NTA, Superdex-75); not shown: His6, C-terminal, kept
As for B1, the Kd in experiment [1] amounted to 1.9 nM; in experiment [4], 3.2 nM; in experiment [5], 2.9 nM; in experiment [7], 3.7 nM. Also, the koff was 0.00013 s⁻¹ in experiment [1], 0.00072 s⁻¹ in experiment [4], 0.000443 s⁻¹ in experiment [5] and 0.00098 s⁻¹ in experiment [7]. The kon in experiment [1] turned out to be 662000 M⁻¹ s⁻¹; in experiment [4], 224000 M⁻¹ s⁻¹; in experiment [5], 153000 M⁻¹ s⁻¹; in experiment [7] it was 267000 M⁻¹ s⁻¹. Besides, the “EC50 of inhibition of hBACE1:Fc in the in vitro APP cleavage assay (MBP-C125sw substrate, cleavage product by ELISA)” value in experiment [2] stood at 99.2 nM. Moreover, in experiment [3], the “EC50 of lowering Aβ1-40 (ELISA of conditioned medium) in primary mouse neurons expressing human APP695, VHH-B9 from 10 µM to 0.7 nM” value came to 85.4 nM. The binding result in experiment [6] is “no binding (tested: 100 nM)”.

B2: VHH‐4A2 (VHH)
VHH: QVQLQESGGGLVQPGGSLRLSCAASGFTFETQYMTWVRQAPGKGPEYVSSINSGGTIKYYANSSVKGRFTISRDNAKNTLYLQMNNLRPEDTAIYYCQLGQWAGVGAASSRGQGTQVTVSS
As to B2, in experiment [1], the Kd amounted to 21.2 nM, the dissociation rate constant (koff) was 0.00841 s⁻¹ and the kon is 397000 M⁻¹ s⁻¹. In experiment [8], the EC50 of inhibition of hBACE1:Fc in the in vitro APP cleavage assay (MBP-C125sw substrate, cleavage product by ELISA) was 789 nM. In experiment [7], this molecule returned a Kd of 48.2 nM, a koff of 0.0231 s⁻¹ and a kon of 479000 M⁻¹ s⁻¹.

B3: VHH‐10C4 (VHH)
VHH: QVQLQESGGGSVQAGGFLRLSCAASGYTYSTCSMAWYRQAPGKERELVSSIRNDGSTAYADSVKGRFTISQDNAKNTVYLQMNSLKPEDTAMYYCNIRIGVGPGGTCSIYAPYWGEGTQVTVSS
In experiment [1], B3 registered a Kd of 27.7 nM, a koff of 0.0125 s⁻¹ and a kon of 451000 M⁻¹ s⁻¹. This molecule showed an EC50 of inhibition of hBACE1:Fc in the in vitro APP cleavage assay (MBP-C125sw substrate, cleavage product by ELISA) in experiment [8] of 112 nM. In experiment [7], the Kd was 74.7 nM, the koff was 0.00792 s⁻¹ and the association rate constant (kon) is 106000 M⁻¹ s⁻¹.
